Source: paper PMC8434428

Target: Aca2 (anti-CRISPR associated protein 2) from Pectobacterium carotovorum bacteriophage ZF40 (Pectobacterium carotovorum bacteriophage ZF40)
Test: SEC; final size exclusion run of untagged Aca2 on HiPrep 16/60 Sephacryl S-200 in buffer S [50 mM Tris-HCl (pH 7.9), 500 mM KCl, 10% glycerol]; oligomer judged from the elution volume

Substance: Aca2 (anti-CRISPR associated protein 2) from Pectobacterium carotovorum bacteriophage ZF40 (natural protein)
- stoichiometry N: 2
